# B1: TrfB transcriptional repressor protein (Escherichia coli), P03052 (parent)
# chain: MKKRLTESQFQEAIQGLEVGQQTIEIARGVLVDGKPQATFATSLGLTRGAVSQAVHRVWAAFEDKNLPEGYARVTAVLPEHQAYIVRKWEADAKKKQETKR
# Variants of: B1
# Settings: with korb2_ecolx korB
row,Variant,effect of a mutation on the interaction
1,P68A,decreasing interaction strength
2,Q82A,decreasing interaction strength
3,L78A,disrupting interaction strength
4,V74A,disrupting interaction strength
5,Y84A,disrupting interaction strength
